The target of one assay is 6A5. In words: BLI; 500 nM antigen. On the technique in general: In BLI a coated tip is dipped into the sample, and binding shifts an interference pattern.
The target in a further assay is 5G10. In words: BLI; 500 nM antigen.

B1: LA0591 (other)
chain: VNPDQYCPASKKENHNIRIKRTLPPDFQLTEEWLRRLYDIATSASLTEGQIHGICGVCLLQTFQMLAELQEYHSHGPLQGGGYFFNTAPDTDPFDSFRQRYPELDTMLTDAATAYGPAYNTTRLLTLVSAMTMMPQYEWTPSREFTTRSDMHSHIRSLIDSPPGSIWLGLMQRRESDETLRWHALPILRTSQGLIVIQTRVSTMSFELYRLYLTPSTSIVQIINDYLEEADRTLTVLVTIQLEQAYQNLFDFMVSNMNCTGEGENRRGSGGYPTSATVNQCSGGRCALPNW
A word on the Kd: it is the free concentration of one partner at which half of the binding sites on the other are occupied at equilibrium, for simple one-to-one binding. A higher Kd goes with a looser complex. On to B1, for which the Kd with 6A5 and with 5G10 was less than 1 pM throughout.

These data come from patent US20240277823A1 (published 2024).
